In publication PMC9631991:

Target: biotinylated pro-LC3B (residues 1-125) (human) (UniProt Q9GZQ8)
Assay: SPR; biotinylated LC3B constructs immobilised on NeutrAvidin-coated CM5 chips; ATG4b proteins flowed over, 0.2 nM~20 uM; 1X PBS, 0.5 mM TCEP, 0.05% Tween 20, 20 °C; Biacore 4000; 1:1 binding model

Kd: 321 nM
Substance: ATG4b WT (full-length ATG4b) (from UniProt Q9Y4P1 1-393) (enzyme)
